Columns and labels:
[1] = molecular target: Monoclonal antibody mAB 6F5 (anti-deoxynivalenol monoclonal antibody from hybridoma cell line 6F5); test: CD-ELISA, immobilized mAB 6F5; C430 competing with DON-HRP or C430-HRP conjugate
[2] = molecular target: antiserum from C430-BSA-immunized mice; test: CI-ELISA, immobilized phage-displayed DONPEP.2, antiserum after the fourth injection, free C430 as competitor

H-SWGPFPFGGGSC-OH [synthetic peptide C430 (NH2-…-COOH)]
IC50 [1]: 640 to 800 nM
IC50 [2]: 390 nM

Source: patent publication US20030165991A1
